Laboratory results as given in US20190002562A1 (INTERVET, published 2019).
Where a chain is given by its changes, count along the chain named.

T1: HIS-tagged canine PD-1 ECD protein (canine)
T1 construct: also called PD-1 HIS; canine PD-1 ECD-HIS tagged protein; not shown: HIS tag
T1 chain: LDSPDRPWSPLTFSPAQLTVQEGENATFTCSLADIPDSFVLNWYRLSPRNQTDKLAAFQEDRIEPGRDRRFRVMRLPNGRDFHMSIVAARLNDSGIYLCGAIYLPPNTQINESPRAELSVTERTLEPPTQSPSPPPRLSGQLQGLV

T2: canine PD-1 (canine)
T2 construct: also called canine PD-1 antigen; cPD-1
T2 chain: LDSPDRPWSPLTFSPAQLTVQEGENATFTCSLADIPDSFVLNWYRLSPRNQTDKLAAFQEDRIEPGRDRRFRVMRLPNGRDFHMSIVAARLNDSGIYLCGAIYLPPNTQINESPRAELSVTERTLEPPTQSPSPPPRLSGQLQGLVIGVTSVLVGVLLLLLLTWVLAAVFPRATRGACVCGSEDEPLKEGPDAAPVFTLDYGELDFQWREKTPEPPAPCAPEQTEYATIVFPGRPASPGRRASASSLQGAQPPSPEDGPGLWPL

B1: 3B6 VH3 IgGB / VL3 (antibody, V domains shown)
VH: EVQLVQSGGDLVKPGGSVRLSCVASGYTFTTYGMSWVRQAPGKGLQWMGWINIYSGIPTYADDFKGRFTFSLDTAKNTAYLQLNSLRAEDTAVYYCTRFDGPDYWGQGTLVTVSS
VL: DIVMTQTPLSLSVSPGEPASMSCKSSQSLLNSVNQKNYLAWYRQKPGQSPQVLVYFASARVSGVPDRFIGSGSGTDFTLRISRVEADDLGVYYCQQYFSTPLTFGQGTKLELKR
notes: copies: 2 + 2
B2: Murine 2H9 (antibody, V domains shown)
VH: EVQLQQSVAELVRPGASVKLSCTASGFNIKNTYMHWIKQRPEQGLEWIGRIAPANVDTKYAPKFQGKATITADTSSNTAYMQLSTLTSEDTAIYYCVLIYYDYDGDIDVWGTGTTVTVSS
VL: DIQMNQSPSSLSASLGDTITITCHASQNINVWLSWYQQRPGNIPKLLIYKASHLHTGVPSRFSGSGSGTGFTLTISSLQPEDIATYYCQQGQSWPLTFGAGTKLELK
B3: can2H9 VH4/VL3 IgGB (antibody)
heavy: EVQLVQSGGDLVKPGGSVRLSCVASGFNIKNTYMHWVRQAPGKGLQWIGRIAPANVDTKYAPKFQGKATISADTAKNTAYMQLNSLRAEDTAVYYCVLIYYDYDGDIDVWGQGTLVTVSSASTTAPSVFPLAPSCGSTSGSTVALACLVSGYFPEPVTVSWNSGSLTSGVHTFPSVLQSSGLYSLSSMVTVPSSRWPSETFTCNVAHPASKTKVDKPVPKRENGRVPRPPDCPKCPAPEMLGGPSVFIFPPKPKDTLLIARTPEVTCVVVDLDPEDPEVQISWFVDGKQMQTAKTQPREEQFNGTYRVVSVLPIGHQDWLKGKQFTCKVNNKALPSPIERTISKARGQAHQPSVYVLPPSREELSKNTVSLTCLIKDFFPPDIDVEWQSNGQQEPESKYRTTPPQLDEDGSYFLYSKLSVDKSRWQRGDTFICAVMHEALHNHYTQESLSHSPGK
light: DIVMTQTPLSLSVSLGEPASISCHASQNINVWLSWYRQKPGQIPQLLIYKASHLHTGVPDRFSGSGSGTDFTLRISRVEADDAGVYYCQQGQSWPLTFGQGTKVEIKRNDAQPAVYLFQPSPDQLHTGSASVVCLLNSFYPKDINVKWKVDGVIQDTGIQESVTEQDSKDSTYSLSSTLTMSSTEYLSHELYSCEITHKSLPSTLIKSFQRSECQRVD
notes: also called 2H9 VH4 IgGB/VL3; caninized 2H9 with un-modified IgGB Fc
B4: can2H9 IgGD VH4/VL3 (antibody)
heavy chain: EVQLVQSGGDLVKPGGSVRLSCVASGFNIKNTYMHWVRQAPGKGLQWIGRIAPANVDTKYAPKFQGKATISADTAKNTAYMQLNSLRAEDTAVYYCVLIYYDYDGDIDVWGQGTLVTVSSASTTAPSVFPLAPSCGSTSGSTVALACLVSGYFPEPVTVSWNSGSLTSGVHTFPSVLQSSGLYSLSSTVTVPSSRWPSETFTCNVVHPASNTKVDKPVPKESTCKCISPCPVPESLGGPSVFIFPPKPKDILRITRTPEITCVVLDLGREDPEVQISWFVDGKEVHTAKTQPREQQFNSTYRVVSVLPIEHQDWLTGKEFKCRVNHIGLPSPIERTISKARGQAHQPSVYVLPPSPKELSSSDTVTLTCLIKDFFPPEIDVEWQSNGQPEPESKYHTTAPQLDEDGSYFLYSKLSVDKSRWQQGDTFTCAVMHEALQNHYTDLSLSHSPGK
light chain: B3 light
notes: also called can2H9 VH4 IgGD/VL3
B5: can2H9 ADCC (1062) VH4/VL3 (antibody)
heavy: B3 heavy with D271A, N303A
light: B3 light
notes: also called YZZ1062
B6: can2H9 ADCC mut-2 VH4/VL3 (antibody)
heavy: B3 heavy with N303A
light: B3 light
notes: also called can2H9 VH4 IgGB ADCC (mut-2)/VL3; YZZ1058/Mut-2
B7: can2H9 ADCC (1061) VH4/VL3 (antibody)
heavy: B3 heavy with P335A
light: B3 light
notes: also called can2H9 VH4 IgGB ADCC (1061)/VL3; YZZ1061
B8: can2H9 ADCC(1060) VH4/VL3 (antibody)
heavy: B3 heavy with A333G
light: B3 light
notes: also called YZZ1060
B9: can 2H9 IgGB ADCC (1068) VH4/VL3 (antibody)
heavy: B3 heavy with P244A, D271A, N303A, A333G, P335A
light: B3 light
notes: also called can2H9 VH4 IgGB ADCC (1068)/VL3; YZZ1068
B10: can2H9 ADCC mut-1 VH4/VL3 (antibody)
heavy: B3 heavy with D271A
light: B3 light
notes: also called can2H9VH4 IgGB ADCC (mut-1)/VL3; YZZ1057/Mut-1
B11: can2H9 ADCC(1059) VH4/VL3 (antibody)
heavy: B3 heavy with P244A
light: B3 light
notes: also called can2H9 VH4 IgGB ADCC(1059)/VL3; YZZ1059
B12: Murine 3B6 (antibody, V domains shown)
VH: QIQLVQSGPELKKPGETVKISCKASGYTFTTYGMSWVKQAPGKGLKWMGWINIYSGIPTYADDFKGRFAFSLETSASTAYLQIDNLKNEDTATYFCARFDGPDYWGQGTTLTVSS
VL: DIVMTQSPSSLAVSVGRKVTMSCKSSQSLLNSVNQKNYLAWYQQKPGQSPKVLVYFASARVSGVPDRFIGSGSGTDFTLAISSVQAEDLTTYFCQQYFSTPLTFGAGTKLELK

Columns and labels:
[1] = biological target: T1, HIS-tagged canine PD-1 ECD protein; assay: ELISA on the extracellular domain of canine PD-1
canine PD-1 [2] = biological target: T2, canine PD-1; assay: SPR (Biacore T200), canine PD-1 amine-coupled, antibody as analyte, 1:1 fit; off-rate below the detection limit
canine PD-1 [3] = biological target: T2, canine PD-1; assay: SPR (Biacore T200), canine PD-1 amine-coupled, antibody as analyte, 1:1 fit
[4] = biological target: T3, recombinant human CD64 protein (R&D systems) (human, UniProt P12314 16-288); assay: ELISA: antibody titrated on coated PD-1 HIS, then recombinant human CD64 at 1 ug/mL, biotinylated anti-CD64 and streptavidin-HRP
T3 construct: Bought protein; also called FcγRI; FcRγI
Experimental: (§1) Binding to FcRγI is a measure of the ability of an antibody to mediate ADCC. In order to assess this property for the caninized antibodies an assay to measure binding of caninized antibodies to FcγRI was conducted as follows: Coat 96-well plates with 100 μl per well of 2.5 μg/mL PD-1 HIS. Incubate at 2-7° C. overnight. Equilibrate the plates to room temp for 15 minutes. Wash plates 3× with phosphate buffered saline containing 0.05% Tween® 20 (PBST) and then block the wells using 200 μL/well of 5% NFDM (Non Fat Dried Milk). Incubate for 60 minutes at 36-38° C. Wash 3× with PBST. Make 2-fold dilution of antibodies starting at 1 μg/mL in 5% NFDM. Add 100 μL/well of diluted antibodies. Incubate for 60 minutes at 36-38° C. Wash 6× with PBST. Add 100 μL/well of recombinant human CD64 protein (R&D systems) diluted to 1 μg/mL. Incubate for 60 minutes at 36-38° C. Wash 6× with PBST. Add 100 μL/well biotinylated-anti-CD64 antibody (R&D systems) diluted to 1:3000. Incubate for 60 minutes at 36-38° C. Wash 6× with PBST. Add 100 μL/well Streptavidin-HRP antibody (R&D systems) diluted to 1:7500. Incubate for 60 minutes at 36-38° C. Wash 6× with PBST. Add 100 μL/well TMB substrate. Incubate for 10 minutes at 15-30° C. Read plates using ELISA plate reader at 450-540 nm.

[5] = biological target: T3, recombinant human CD64 protein (R&D …); assay: ELISA: antibody captured on PD-1 HIS, recombinant human CD64 added
Experimental: as §1

T3 sequence (P12314 16-288 limits assumed): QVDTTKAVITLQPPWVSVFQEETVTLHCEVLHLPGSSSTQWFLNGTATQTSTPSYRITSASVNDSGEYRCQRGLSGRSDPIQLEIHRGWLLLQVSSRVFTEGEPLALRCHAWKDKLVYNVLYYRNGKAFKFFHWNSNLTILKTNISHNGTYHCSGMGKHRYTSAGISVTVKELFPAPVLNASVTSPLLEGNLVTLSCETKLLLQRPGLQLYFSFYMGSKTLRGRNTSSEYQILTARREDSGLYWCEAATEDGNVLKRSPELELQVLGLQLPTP

| Binder | binding result [4] | binding result [5] | also measured |
| --- | --- | --- | --- |
| B1 |  |  | EC50 (read off the curve) [1]: ~0.1 nM |
| B2 |  |  | Kd (canine PD-1 [2]): ≤ 0.2 nM; koff (canine PD-1 [2]): ≤ 5e-06 s⁻¹; kon (canine PD-1 [3]): 23000 M⁻¹ s⁻¹ |
| B3 | binds |  |  |
| B4 | no binding (tested: log(nM) about 0.83 (1 ug/mL)) |  |  |
| B5 |  | no binding | EC50 (read off the curve) [1]: ~0.3 nM |
| B6 |  | binds |  |
| B7 | binds |  |  |
| B8 | binds |  |  |
| B9 |  | no binding |  |
| B10 |  | binds |  |
| B11 | binds |  |  |
| B12 |  |  | Kd (canine PD-1 [3]): 2 nM; koff (canine PD-1 [3]): 3.4e-05 s⁻¹; kon (canine PD-1 [3]): 18000 M⁻¹ s⁻¹ |
